Laboratory results reported in patent publication US20180134765A1 (AVIDBIOTICS, published 2018).

B5: human NKG2D-Fc (Fc fusion)
chain: FLNSLFNQEVQIPLTESYCGPCPKNWICYKNNCYQFFDESKNWYESQASCMSQNASLLKVYSKEDQDLLKLVKSYHWMGLVHIPTNGSWQWEDGSILSPNLLTIIEMQKGDCALYASSFKGYIENCSTPNTYICMQRTV
notes: also called natural NKG2D-Fc; not shown: Fc part

Assays:
[1] = target: B5; experiment: competition ELISA: inhibits 2 nM human NKG2D-Fc binding to plate-coated WT sMICA
[2] = target: T1, biotinylated human NKG2D (Example 3) (human, UniProt P26718 78-216, limits assumed, biotinylated (site not stated)); experiment: biolayer interferometry (Octet), biotinylated human NKG2D on the surface, 100 nM analyte
T1 construct: also called recombinant biotinylated NKG2D; surface coated biotinylated human NKG2D
T1 sequence (looked up): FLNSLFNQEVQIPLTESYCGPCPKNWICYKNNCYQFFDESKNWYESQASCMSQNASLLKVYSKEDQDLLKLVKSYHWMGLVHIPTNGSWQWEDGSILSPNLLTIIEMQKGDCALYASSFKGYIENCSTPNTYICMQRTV

[3] = target: T1, biotinylated human NKG2D (Example 3); experiment: biolayer interferometry (Octet), Kd = kOFF/kON
[4] = target: T2, ULBP4-Fc (UniProt Q8TD07 31-225); experiment: plate ELISA: biotinylated natural NKG2D ectodomain titrated on coated ligand-Fc
T2 construct: Bought, R&D Systems; not shown: Fc part of the bought reagent
T2 sequence (looked up): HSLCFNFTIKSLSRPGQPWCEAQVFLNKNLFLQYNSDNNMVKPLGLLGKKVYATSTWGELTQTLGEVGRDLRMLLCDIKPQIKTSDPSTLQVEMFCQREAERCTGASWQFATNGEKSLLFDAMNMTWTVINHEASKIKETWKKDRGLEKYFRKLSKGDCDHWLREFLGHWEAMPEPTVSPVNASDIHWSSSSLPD

[5] = target: T3, ULBP1-Fc (UniProt Q9BZM6 26-216); experiment: ELISA: ligand-Fc coated at 2 ug/ml, biotinylated NKG2D ectodomain titrated, streptavidin-HRP
T3 construct: Bought, R&D Systems; not shown: Fc part of the bought reagent
T3 sequence (looked up): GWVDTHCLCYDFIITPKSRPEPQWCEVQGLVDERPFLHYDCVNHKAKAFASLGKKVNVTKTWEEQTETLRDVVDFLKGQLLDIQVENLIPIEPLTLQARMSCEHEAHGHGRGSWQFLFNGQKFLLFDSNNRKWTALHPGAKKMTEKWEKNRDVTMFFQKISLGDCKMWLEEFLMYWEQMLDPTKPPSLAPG

[6] = target: T4, MICB-Fc (UniProt Q29980 23-298); experiment: as above
T4 construct: Bought, R&D Systems; not shown: Fc part of the bought reagent
T4 sequence (looked up): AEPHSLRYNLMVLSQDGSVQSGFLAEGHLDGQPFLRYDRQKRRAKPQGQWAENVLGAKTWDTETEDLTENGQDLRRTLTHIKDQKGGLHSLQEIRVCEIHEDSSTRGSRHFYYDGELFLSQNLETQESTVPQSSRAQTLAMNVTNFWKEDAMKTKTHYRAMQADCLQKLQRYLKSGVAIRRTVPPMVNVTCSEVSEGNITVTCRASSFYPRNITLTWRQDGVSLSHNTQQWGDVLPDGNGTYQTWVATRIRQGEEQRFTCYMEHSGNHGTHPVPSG

[7] = target: T5, ULBP3-Fc (UniProt Q9BZM4 30-217); experiment: as above
T5 construct: Bought, R&D Systems; not shown: Fc part of the bought reagent
T5 sequence (looked up): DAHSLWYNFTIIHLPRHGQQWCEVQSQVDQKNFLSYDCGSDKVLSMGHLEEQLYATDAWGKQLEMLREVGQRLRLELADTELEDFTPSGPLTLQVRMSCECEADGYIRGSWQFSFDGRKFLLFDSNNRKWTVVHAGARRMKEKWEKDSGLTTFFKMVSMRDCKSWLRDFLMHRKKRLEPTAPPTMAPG

[8] = target: T6, ULBP2-Fc (UniProt Q9BZM5 26-217); experiment: as above
T6 construct: Bought, R&D Systems; not shown: Fc part of the bought reagent
T6 sequence (looked up): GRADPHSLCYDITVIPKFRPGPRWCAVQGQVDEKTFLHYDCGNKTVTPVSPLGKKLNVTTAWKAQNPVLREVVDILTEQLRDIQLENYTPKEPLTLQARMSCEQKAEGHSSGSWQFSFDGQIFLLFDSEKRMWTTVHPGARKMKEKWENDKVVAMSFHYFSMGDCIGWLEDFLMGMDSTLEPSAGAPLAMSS

[9] = target: MICwed-Fc; experiment: as above
[10] = target: T3, ULBP1-Fc; experiment: ELISA: ligand-Fc coated at 2 ug/ml, biotinylated NKG2D Y152A ectodomain titrated, streptavidin-HRP
[11] = target: T4, MICB-Fc; experiment: as above
[12] = target: T5, ULBP3-Fc; experiment: as above
[13] = target: T6, ULBP2-Fc; experiment: as above
[14] = target: MICwed-Fc; experiment: as above
[15] = target: T7, MICA-Fc; experiment: as above
T7 construct: also called natural α1-α2-α3-Fc fusion
T7 chain: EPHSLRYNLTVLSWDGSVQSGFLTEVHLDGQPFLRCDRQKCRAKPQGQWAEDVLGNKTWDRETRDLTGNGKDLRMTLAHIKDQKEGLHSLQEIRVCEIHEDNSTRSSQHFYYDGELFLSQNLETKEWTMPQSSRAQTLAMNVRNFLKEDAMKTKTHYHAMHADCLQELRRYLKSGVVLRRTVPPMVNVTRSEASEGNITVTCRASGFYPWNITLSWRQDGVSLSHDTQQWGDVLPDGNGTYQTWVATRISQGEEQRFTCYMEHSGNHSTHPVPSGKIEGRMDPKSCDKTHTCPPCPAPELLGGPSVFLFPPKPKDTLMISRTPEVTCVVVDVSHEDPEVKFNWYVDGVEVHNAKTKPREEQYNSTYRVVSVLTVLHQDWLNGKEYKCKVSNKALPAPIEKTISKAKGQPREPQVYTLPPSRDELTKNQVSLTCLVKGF

[16] = target: T2, ULBP4-Fc; experiment: as above
[17] = target: T3, ULBP1-Fc; experiment: ELISA: ligand-Fc coated at 2 ug/ml, biotinylated NKG2D Y199A ectodomain titrated, streptavidin-HRP
[18] = target: T4, MICB-Fc; experiment: as above
[19] = target: T5, ULBP3-Fc; experiment: as above
[20] = target: T8, MICv25-Fc; experiment: as above
T8 construct: also called MIC-v25 α1-α2 domain ligand

[21] = target: T6, ULBP2-Fc; experiment: as above
[22] = target: MICwed-Fc; experiment: as above
[23] = target: T7, MICA-Fc; experiment: as above
[24] = target: T2, ULBP4-Fc; experiment: as above
[25] = target: T9, OMCP-α3-iFv.2; experiment: ELISA: protein captured on FGFR3 detected with NKG2D-Fc
T9 construct: also called NKG2DL-α3-iFv.2 (OMCP)

B1: WT α1-α2 soluble MICA protein (Example 3) (ligand)
chain: EPHSLRYNLTVLSWDGSVQSGFLTEVHLDGQPFLRCDRQKCRAKPQGQWAEDVLGNKTWDRETRDLTGNGKDLRMTLAHIKDQKEGLHSLQEIRVCEIHEDNSTRSSQHFYYDGELFLSQNLETKEWTMPQSSRAQTLAMNVRNFLKEDAMKTKTHYHAMHADCLQELRRYLKSGVVLRRTVPPMVQVTRSEASGGSGDRVTITCRASQDVSTAVAWYQQKPGKAPKLLIYSASFLYSGVPSRFSGSGSGTDFTLTISSLQPEDFATYYCQQSYTTPPTFGQGTKVEIKGGSSRSSSSGGGGSGGGGEVQLVESGGGLVQPGGSLRLSCAASGFTFTSTGISWVRQAPGKGLEWVGRIYPTNGSTNYADSVKGRFTISADTSKNTAYLQMNSLRAEDTAVYYCARTYGIYDLYVDYTEYVMDYWGQGTLVTVSSGGSSRSSSSGGGGSGGGGDIQMTQSPSSLSASGGSGQITVTCRASGFYPWNITLSWRQDGVSLSHDTQQWGDVLPDGQGTYQTWVATRISQGEEQRFTCYMEHSGQHSTHPVPSGKGSHHHHHH
notes: also called WT NKG2DL; WT MICA
**Q.** What does the source list for B1?
**A.** IC50 [1]: 19.4 nM; koff [2]: 0.0018 s⁻¹; kon [2]: 130000 M⁻¹ s⁻¹; Kd [3]: 13.8 nM

B2: His-avitag-natural NKG2D (receptor)
chain: EPHHHHHHGLNDIFEAQKIEWHENSLFNQEVQIPLTESYCGPCPKNWICYKNNCYQFFDESKNWYESQASCMSQNASLLKVYSKEDQDLLKLVKSYHWMGLVHIPTNGSWQWEDGSILSPNLLTIIEMQKGDCALYASSFKGYIENCSTPNTYICMQRTV
modifications: biotin on the avitag sequence (BirA)
notes: also called natural NKG2D ectodomain; wild type NKG2D
**Q.** Which results are given for B2?
**A.** binding result [4]: binds; binding result [5]: binds; binding result [6]: binds; binding result [7]: binds; binding result [8]: binds; EC50 (read off the curve) [9]: ~100 nM

B3: Y152A NKG2D ectodomain (receptor)
chain: EPHHHHHHGLNDIFEAQKIEWHENSLFNQEVQIPLTESYCGPCPKNWICYKNNCYQFFDESKNWYESQASCMSQNASLLKVYSKEDQDLLKLVKSAHWMGLVHIPTNGSWQWEDGSILSPNLLTIIEMQKGDCALYASSFKGYIENCSTPNTYICMQRTV
modifications: biotin on the avitag sequence (BirA)
notes: Expressed with His-avitag; also called non-natural NKG2D mutant Y152A; Y152A mutant NKG2D ectodomain
**Q.** Which results are given for B3?
**A.** binding result [10]: no binding (tested: 2000 nM); binding result [11]: no binding (tested: 2000 nM); binding result [12]: no binding (tested: 2000 nM); binding result [13]: no binding (tested: 2000 nM); binding result [14]: no binding (tested: 2000 nM); binding result [15]: no binding (tested: 2000 nM); binding result [16]: no binding (tested: 2000 nM)

B4: Y199A NKG2D ectodomain (receptor)
chain: EPHHHHHHGLNDIFEAQKIEWHENSLFNQEVQIPLTESYCGPCPKNWICYKNNCYQFFDESKNWYESQASCMSQNASLLKVYSKEDQDLLKLVKSYHWMGLVHIPTNGSWQWEDGSILSPNLLTIIEMQKGDCALYASSFKGAIENCSTPNTYICMQRTV
modifications: biotin on the avitag sequence (BirA)
notes: Expressed with His-avitag; also called non-natural NKG2D mutant Y199A
**Q.** Does B4 bind [17]?
**A.** Result: no binding (tested: 2000 nM)

**Q.** Does B4 bind [18]?
**A.** Result: no binding (tested: 2000 nM)

**Q.** Does B4 bind [19]?
**A.** Result: no binding (tested: 2000 nM)

**Q.** Does B4 bind [20]?
**A.** Result: no binding (tested: 2000 nM)

**Q.** Does B4 bind [21]?
**A.** Result: no binding (tested: 2000 nM)

**Q.** Does B4 bind [22]?
**A.** Result: no binding (tested: 2000 nM)

**Q.** Does B4 bind [23]?
**A.** Result: no binding (tested: 2000 nM)

**Q.** Does B4 bind [24]?
**A.** Result: no binding (tested: 2000 nM)

**Q.** Does B5 bind [25]?
**A.** Result: binds
